The values that follow come from patent publication US20260049138A1 (Chugai, published 2026).

Residue numbers refer to the chain shown, from its start. In names and notes the source's numbering stands.

To fix the notation:
B1: CE115HA000 N54Q one-arm antibody (antibody, human IgG1, kappa, L234A L235A, N297A, name in Kabat numbering)
heavy: QVQLVESGGGVVQPGRSLRLSCAASGFTFSNAWMHWVRQAPGKGLEWVAQIKAKSNQYATYYAESVKGRFTISRDDSKNSLYLQMNSLKTEDTAVYYCRYVHYGAYYGVDAWGQGTTVTVSSASTKGPSVFPLAPSSKSTSGGTAALGCLVKDYFPEPVTVSWNSGALTSGVHTFPAVLQSSGLYSLSSVVTVPSSSLGTQTYICNVNHKPSNTKVDKKVEPKSCDKTHTCPPCPAPEAAGGPSVFLFPPKPKDTLMISRTPEVTCVVVDVSHEDPEVKFNWYVDGVEVHNAKTKPREEQYASTYRVVSVLTVLHQDWLNGKEYKCKVSNKALPAPIEKTISKAKGQPREPQVYTLPPSRCELTKNQVSLSCAVKGFYPSDIAVEWESNGQPENNYKTTPPVLDSDGSFFLVSKLTVDKSRWQQGNVFSCSVMHEALHNHYTQKSLSLSPDYKDDDDK
chain: EPKSSDKTHTCPPCPAPELLGGPSVFLFPPKPKDTLMISRTPEVTCVVVDVSHEDPEVKFNWYVDGVEVHNAKTKPREEQYNSTYRVVSVLTVLHQDWLNGKEYKCKVSNKALPAPIEKTISKAKGQPREPQVCTLPPSRDELTKNQVSLWCLVKGFYPSDIAVEWESNGQPENNYKTTPPVLDSDGSFFLYSKLTVDKSRWQQGNVFSCSVMHEALHNRYTQKSLSLSP
light: DIVMTQSPLSLPVTPGEPASISCRSSQSLVHSNRNTYLHWYQQKPGQAPRLLIYKVSNRFSGVPDRFSGSGSGTDFTLKISRVEAEDVGVYYCGQGTQVPYTFGQGTKLEIKRTVAAPSVFIFPPSDEQLKSGTASVVCLLNNFYPREAKVQWKVDNALQSGNSQESVTEQDSKDSTYSLSSTLTLSKADYEKHKVYACEVTHQGLSSPVTKSFNRGEC
B2: CE115HA000 R16Q one-arm antibody (antibody, human IgG1, kappa, L234A L235A, N297A, name in Kabat numbering)
heavy: B1 heavy with R16Q, Q57N
chain: B1 chain
light: B1 light
B3: CE115HA000 Q50K one-arm antibody (antibody, human IgG1, kappa, L234A L235A, N297A, name in Kabat numbering)
heavy: B1 heavy with Q50K, Q57N
chain: B1 chain
light: B1 light
B4: CE115HA000 Q50Y one-arm antibody (antibody, human IgG1, kappa, L234A L235A, N297A, name in Kabat numbering)
heavy: B1 heavy with Q50Y, Q57N
chain: B1 chain
light: B1 light
B5: CE115HA000 N54S one-arm antibody (antibody, human IgG1, kappa, L234A L235A, N297A, name in Kabat numbering)
heavy: B1 heavy with Q57S
chain: B1 chain
light: B1 light
B6: CE115HA000 N76S one-arm antibody (antibody, human IgG1, kappa, L234A L235A, N297A, name in Kabat numbering)
heavy: B1 heavy with Q57N, N79S
chain: B1 chain
light: B1 light
B7: CE115HA000 S52cD one-arm antibody (antibody, human IgG1, kappa, L234A L235A, N297A, name in Kabat numbering)
heavy: B1 heavy with S55D, Q57N
chain: B1 chain
light: B1 light
B8: CE115HA000 S30D one-arm antibody (antibody, human IgG1, kappa, L234A L235A, N297A, name in Kabat numbering)
heavy: B1 heavy with S30D, Q57N
chain: B1 chain
light: B1 light
B9: CE115HA000 S30G one-arm antibody (antibody, human IgG1, kappa, L234A L235A, N297A, name in Kabat numbering)
heavy: B1 heavy with S30G, Q57N
chain: B1 chain
light: B1 light
B10: CE115HA000 N82aD one-arm antibody (antibody, human IgG1, kappa, L234A L235A, N297A, name in Kabat numbering)
heavy: B1 heavy with Q57N, N86D
chain: B1 chain
light: B1 light
B11: CE115HA000 Q50A one-arm antibody (antibody, human IgG1, kappa, L234A L235A, N297A, name in Kabat numbering)
heavy: B1 heavy with Q50A, Q57N
chain: B1 chain
light: B1 light
B12: CE115HA000 S52cA one-arm antibody (antibody, human IgG1, kappa, L234A L235A, N297A, name in Kabat numbering)
heavy: B1 heavy with S55A, Q57N
chain: B1 chain
light: B1 light
B13: CE115HA000 Q50L one-arm antibody (antibody, human IgG1, kappa, L234A L235A, N297A, name in Kabat numbering)
heavy: B1 heavy with Q50L, Q57N
chain: B1 chain
light: B1 light
B14: CE115HA000 N54Y one-arm antibody (antibody, human IgG1, kappa, L234A L235A, N297A, name in Kabat numbering)
heavy: B1 heavy with Q57Y
chain: B1 chain
light: B1 light
B15: CE115HA000 Q50S one-arm antibody (antibody, human IgG1, kappa, L234A L235A, N297A, name in Kabat numbering)
heavy: B1 heavy with Q50S, Q57N
chain: B1 chain
light: B1 light
B16: CE115HA000 R19T one-arm antibody (antibody, human IgG1, kappa, L234A L235A, N297A, name in Kabat numbering)
heavy: B1 heavy with R19T, Q57N
chain: B1 chain
light: B1 light
B17: CE115HA000 Q50D one-arm antibody (antibody, human IgG1, kappa, L234A L235A, N297A, name in Kabat numbering)
heavy: B1 heavy with Q50D, Q57N
chain: B1 chain
light: B1 light
B18: CE115HA000 R16E one-arm antibody (antibody, human IgG1, kappa, L234A L235A, N297A, name in Kabat numbering)
heavy: B1 heavy with R16E, Q57N
chain: B1 chain
light: B1 light
B19: CE115HA000 Q50I one-arm antibody (antibody, human IgG1, kappa, L234A L235A, N297A, name in Kabat numbering)
heavy: B1 heavy with Q50I, Q57N
chain: B1 chain
light: B1 light
B20: CE115HA000 Q105E one-arm antibody (antibody, human IgG1, kappa, L234A L235A, N297A, name in Kabat numbering)
heavy: B1 heavy with Q57N, Q114E
chain: B1 chain
light: B1 light
B21: CE115HA000 Q50E one-arm antibody (antibody, human IgG1, kappa, L234A L235A, N297A, name in Kabat numbering)
heavy: B1 heavy with Q50E, Q57N
chain: B1 chain
light: B1 light

The target in the test is T1, CD3ε homodimer protein (human, UniProt P07766 23-126, limits assumed, sulfo-tag or biotin label in the ECL assays; amine-coupled to the chip in SPR).
T1 construct: also called human CD3ε homodimer protein; CD3 (CD3ε)
T1 sequence (P07766 23-126 limits assumed): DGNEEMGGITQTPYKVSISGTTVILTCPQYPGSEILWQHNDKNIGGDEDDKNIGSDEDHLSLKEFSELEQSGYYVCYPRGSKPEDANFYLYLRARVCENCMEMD
The test can be described thus: SPR Biacore T200; CD3ε homodimer on CM4 chip.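 Also: Single-residue variant antibodies injected as analyte over CD3ε homodimer immobilized by amine coupling, run at 25 °C in HBS-EP+ buffer.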 In general terms: In SPR one partner is held on a chip, and binding of the other changes the refractive index at the surface.
In the case of B1, the “ratio of amounts bound Z=Y/X (altered form / CE115HA000)” value was 0.84. The same measure for B2: 0; for B3: 0.33; for B4: 0.25.

With B5, the “ratio of amounts bound Z=Y/X (altered form / CE115HA000)” value is 0.84. On to B6, for which the “ratio of amounts bound Z=Y/X (altered form / CE115HA000)” value was 0.92. For B7 the value was 0.6. As for B8, the “ratio of amounts bound Z=Y/X (altered form / CE115HA000)” value stood at 0.86. As to B9, the “ratio of amounts bound Z=Y/X (altered form / CE115HA000)” value came out at 1.01. The same measure for B10: 0.73; for B11: 0.24; for B12: 0.96.

Consider B13, for which the “ratio of amounts bound Z=Y/X (altered form / CE115HA000)” value was determined as 0.23.

On to B14, for which the “ratio of amounts bound Z=Y/X (altered form / CE115HA000)” value worked out at 1.03.

Take B15: the “ratio of amounts bound Z=Y/X (altered form / CE115HA000)” value is 0.24. The same measure for B16: 0.8; for B17: 0.27. For B18 the value was 0.88; for B19, 0.4; for B20, 0.94. The same measure for B21: 0.26.
